Experimental data as given in US20220340687A1.

Molecular target: high affinity IgE receptor (FcεR1) (human) (UniProt P12319)
Experiment: flow cytometry of purified human pDCs, mean over all assayed donors

human immunoglobulin E (IgE), sequence (P01854 other isoform, or with tags, fused parts or gaps): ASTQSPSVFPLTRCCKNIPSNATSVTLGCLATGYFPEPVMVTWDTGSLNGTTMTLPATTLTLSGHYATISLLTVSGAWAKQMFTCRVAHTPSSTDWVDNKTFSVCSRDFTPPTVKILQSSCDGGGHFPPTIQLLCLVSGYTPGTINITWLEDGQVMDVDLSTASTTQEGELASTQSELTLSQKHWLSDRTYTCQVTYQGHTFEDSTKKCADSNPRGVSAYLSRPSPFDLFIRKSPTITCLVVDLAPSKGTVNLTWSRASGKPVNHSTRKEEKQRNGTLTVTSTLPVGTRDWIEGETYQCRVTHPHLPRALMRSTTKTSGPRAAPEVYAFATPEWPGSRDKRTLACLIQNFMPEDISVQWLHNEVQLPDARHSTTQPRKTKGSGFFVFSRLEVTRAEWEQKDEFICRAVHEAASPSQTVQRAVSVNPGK
high affinity IgE receptor (FcεR1) (human), sequence (P12319 26-257): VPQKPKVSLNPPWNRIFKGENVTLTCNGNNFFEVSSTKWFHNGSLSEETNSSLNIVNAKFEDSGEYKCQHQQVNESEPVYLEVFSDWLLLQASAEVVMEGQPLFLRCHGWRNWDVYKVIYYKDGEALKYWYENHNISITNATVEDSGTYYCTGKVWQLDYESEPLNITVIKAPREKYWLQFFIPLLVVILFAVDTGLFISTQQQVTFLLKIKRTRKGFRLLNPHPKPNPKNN

## human immunoglobulin E (IgE) (from UniProt P01854 1-428) (antibody)
  percentage of pDCs displaying IgE bound to FcεR1: 45.7%
